Test [1] addresses LAT-FYFF (monovalent LAT1Y, residue 48-233), phosphorylated (UniProt O43561). Briefly: ITC.
Test [2] has the same target. Briefly: single-molecule dwell time analysis.

Grb2-Alexa Fluor 647, sequence (P62993 whole entry): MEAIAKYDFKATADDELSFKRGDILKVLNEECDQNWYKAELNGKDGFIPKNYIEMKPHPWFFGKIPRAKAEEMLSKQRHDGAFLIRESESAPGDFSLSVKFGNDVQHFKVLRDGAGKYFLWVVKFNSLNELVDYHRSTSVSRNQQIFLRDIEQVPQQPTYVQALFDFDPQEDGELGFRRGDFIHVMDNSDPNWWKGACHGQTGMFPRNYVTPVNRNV

In test [1], “Grb2-Alexa Fluor 647 (from UniProt P62993 1-217) (natural protein)” displayed a Kd of 463 nM and a dH of -15 kcal/mol. In test [2], this substance showed a koff of 3.4 s⁻¹ and a relative on-rate (against LAT-FFFY:Grb2 = 1) of 1.25.

One may read the Kd as the free concentration of one partner at which half of the binding sites on the other are occupied at equilibrium, for simple one-to-one binding. High values mean weaker binding, low ones tighter binding. Usually koff stands for the rate constant with which the complex falls apart. Lower therefore signals slow dissociation.
